Source: article PMC10681728, “Rad53 regulates the lifetime of Rdh54 at homologous recombination intermediates” (Nucleic Acids Research, 2023)
“And” between values parts separate entries of the source, which are not always exact repeats. Equal values may be shown once.

What was measured:
[1] = target: 6xHis-Rdh54S852A-mCherry (S. cerevisiae); assay: single-molecule fluorescence intensity of clusters (TIRF, DNA curtains); as the cluster size estimate, but 1 nM Rdh54-mCherry mixed with 0.1 or 10 nM GFP-Rad53 or 10 nM GFP-Rad53D339A before injection onto dsDNA curtains
[2] = target: 6xHis-Rdh54S852A-mCherry (S. cerevisiae); assay: single-molecule fluorescence intensity of clusters (TIRF, DNA curtains); Rdh54-mCherry clusters bound to dsDNA; background-subtracted cluster intensity divided by the mean intensity drop of one fluorophore; estimated molecules per cluster
[3] = target: 6xHis-Rdh54-mCherry (S. cerevisiae) (UniProt P38086)
[4] = target: 6xHis-Rdh54T851A-mCherry (S. cerevisiae); assay: single-molecule fluorescence intensity of clusters (TIRF, DNA curtains); as the cluster size estimate, but 1 nM Rdh54-mCherry mixed with 0.1 or 10 nM GFP-Rad53 or 10 nM GFP-Rad53D339A before injection onto dsDNA curtains
[5] = target: 6xHis-Rdh54T851AS852A-mCherry (S. cerevisiae); assay: single-molecule fluorescence intensity of clusters (TIRF, DNA curtains); Rdh54-mCherry clusters bound to dsDNA; background-subtracted cluster intensity divided by the mean intensity drop of one fluorophore; estimated molecules per cluster
[6] = target: the molecule itself; assay: single-molecule photobleaching step counting (TIRF, DNA curtains); Rdh54-mCherry bound to double-tethered lambda dsDNA; 561 nm laser unshuttered at 25% power, 200 ms integration; steps counted for smaller groups

“6xHis-Rdh54S852A-mCherry (natural protein)” showed a median estimated molecules per cluster with 10 nM GFP-Rad53 (molecules per cluster) [1] of 5.7 and a median estimated molecules per cluster (molecules per cluster) [2] of 4.22.

In the case of “6xHis-Rdh54T851A (unlabeled) (natural protein)”, the translocation rate on dsDNA of WT Rdh54 mixed with equimolar unlabeled Rdh54T851A (translocase poisoning) [3] is reported as 23 bp/s.

For “6xHis-Rdh54T851A-mCherry (natural protein)”, the median estimated molecules per cluster with 10 nM GFP-Rad53 (molecules per cluster) [4] was 12.1.

“6xHis-Rdh54T851AS852A-mCherry (natural protein)” was tested, and the median estimated molecules per cluster (molecules per cluster) [5] was 5.1.

B1: 6xHis-Rdh54-mCherry (natural protein, S. cerevisiae, UniProt P38086 35-958, looked up)
chain: MQIPKYENKPFKPPRRVGSNKYTQLKPTATAVTTAPISKAKVTVNLKRSISAGPTLNLAKKPNNLSSNENTRYFTIMYRKPTTKKHKTWSGDGYATLKASSDKLCFYNEAGKFLGSSMLPSDSDSLFETLFKAGSNEVQLDYELKENAEIRSAKEALSQNMGNPSPPTTSTTETVPSTKNDGGKYQMPLSQLFSLNTVKRFKSVTKQTNEHMTTVPKTSQNSKAKKYYPVFDVNKIDNPIVMNKNAAAEVDVIVDPLLGKFLRPHQREGVKFMYDCLMGLARPTIENPDIDCTTKSLVLENDSDISGCLLADDMGLGKTLMSITLIWTLIRQTPFASKVSCSQSGIPLTGLCKKILVVCPVTLIGNWKREFGKWLNLSRIGVLTLSSRNSPDMDKMAVRNFLKVQRTYQVLIIGYEKLLSVSEELEKNKHLIDMLVCDEGHRLKNGASKILNTLKSLDIRRKLLLTGTPIQNDLNEFFTIIDFINPGILGSFASFKRRFIIPITRARDTANRYNEELLEKGEERSKEMIEITKRFILRRTNAILEKYLPPKTDIILFCKPYSQQILAFKDILQGARLDFGQLTFSSSLGLITLLKKVCNSPGLVGSDPYYKSHIKDTQSQDSYSRSLNSGKLKVLMTLLEGIRKGTKEKVVVVSNYTQTLDIIENLMNMAGMSHCRLDGSIPAKQRDSIVTSFNRNPAIFGFLLSAKSGGVGLNLVGASRLILFDNDWNPSVDLQAMSRIHRDGQKKPCFIYRLVTTGCIDEKILQRQLMKNSLSQKFLGDSEMRNKESSNDDLFNKEDLKDLFSVHTDTKSNTHDLICSCDGLGEEIEYPETNQQQNTVELRKRSTTTWTSALDLQKKMNEAATNDDAKKSQYIRQCLVHYKHIDPARQDELFDEVITDSFTELKDSITFAFVKPGEICLREQ
notes: Rdh54, S. cerevisiae DNA translocase; Name printed as 6xHis-Rdh54-mCherry, plasmid pET15-6xHis-Rdh54; also called WT-Rdh54; WT; source: E. coli Rosetta 2 BL21 (DE3), purified (Ni-NTA, SP cation exchange, S300 SEC)
With B1 the “stoichiometry N” value [6] was 2 and 4 and 3.
